# Measurements taken from the supplement of paper PMC10471632, “Protein engineering and iterative multimodule optimization for vitamin B6 production in Escherichia coli” (Nature Communications, 2023).
# ± gives the standard deviation of the averaged measurements.
# B1: library; numbered along this chain (parent)
# chain: MAELLLGVNIDHIATLRNARGTAYPDPVQAAFIAEQAGADGITVHLREDRRHITDRDVRILRQTLDTRMNLEMAVTEEMLAIAVETKPHFCCLVPEKRQEVTTEGGLDVAGQRDKMRDACKRLADAGIQVSLFIDADEEQIKAAAEVGAPFIEIHTGCYADAKTDAEQAQELARIAKAATFAASLGLKVNAGHGLTYHNVKAIAAIPEMHELNIGHAIIGRAVMTGLKDAVAEMKRLMLEARG
# Variants of: B1
# Assay: pyridoxine titer in culture supernatant of strain expressing the PdxJ variant; higher = more PN produced (higher in vivo pathway activity of the PdxJ variant)
# Settings: host strain: E. coli LL006; 48 h; temperature: 37 °C; FM1.4
# Description: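 Rosetta-designed single to quadruple mutants of E. coli PdxJ (PNP synthase) were expressed from pRSFDuet-1 in the engineered chassis E. coli LL006 (MG1655 ΔpdxH::pdxST, pta::Eme_pdxP). Strains were grown in 24 deep-well plates in 2 mL FM1.4 glycerol medium at 37 °C and 800 rpm for 48 h. Extracellular pyridoxine (PN) titer was quantified by HPLC with fluorescence detection; two biological replicates, with the WT pdxJ strain (LL137, about 0.5 mg/L) as control.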
row,Variant,pyridoxine titer [mg/L]
1,A19Q V44I,0.875 ± 0.47
2,T196C I218L,0.22 ± 0.057
3,E100M V101L T196C,2.12 ± 0.38
4,I13V H155I L212I,0.81 ± 0.27
5,I13V E104T G194Q T196C,0.3065 ± 0.0012
6,D11C A23T I218L,0.39 ± 0.17
7,E104T I218L,0.75 ± 0.085
8,T196C L212I,0.66 ± 0.014
9,A19Q,1.02 ± 0.045
10,A23T V44I V101L L212I,8.38 ± 1.2
11,E100I E104T,0.98 ± 0.2
12,T22V A23T,1.74 ± 0.23
13,A19Q E104T,0.72 ± 0.028
14,A19Q G21M T103L,0.49 ± 0.028
15,A19R A23T E100I I219G,0.244 ± 0.041
16,Y24I I219G,0.95 ± 0.23
17,G194C L195I,0.26
18,A23T E104T T196V L212I,2.61 ± 0.1
19,A23T E104T L212I,3.44 ± 1.2
20,T15I V101L T196C,0.44
21,I154L I219G,1.93
22,Y24I,0.0833 ± 0.01
23,E104T,0.334 ± 0.033
24,E104T L212I,2.65 ± 0.071

row,Variant,pyridoxine titer [mg/L]
1,A23T E104T I154L,2.31 ± 0.92
2,I13V G21M E104T T196C,1.98 ± 0.077
3,I10L T22V E104T H155N,2.5 ± 0.35
4,A23T G194C I219G,0.873 ± 0.37
5,I13V E100W E104T L212I,0.293 ± 0.15
6,I219G,1.3 ± 0.31
7,I10L T22V A23T E100I,1.17 ± 0.23
8,V101L T196C L212I,7.33 ± 0.48
9,V44C G194C N213I I218L,2.07 ± 0.077
10,Y24I E100I,0.81 ± 0.028
11,I13V E104T T196C,9.62 ± 0.33
12,E104T A217V,1.12 ± 0.014
13,V101L L212I,0.72 ± 0.042
14,E104T G194C I218L,9.71 ± 0.22
15,G194C T196V N213I I218L,2.28 ± 1
16,V101L T103L L212I,0.81 ± 0.014
17,H12M A23T,0.58 ± 0.014
18,L195G L212I,0.89 ± 0.014
19,E100I V101L T196C A217M,2 ± 0.12
20,L195I T196C,0.41 ± 0.014
21,L195I,0.848 ± 0.15
22,I13V E104T L212I,6.61 ± 2.6
23,I13V L212I,1.07 ± 0.3
24,A14I E104T T196C,1.69 ± 0.75

row,Variant,pyridoxine titer [mg/L]
1,A23T T196W L212I,1.71 ± 0.54
2,E100I,0.906 ± 0.17
3,H12M,1.79 ± 0.07
4,I13V T103L E104T T196C,0.233 ± 0.009
5,I10L T22V A23W E104T,2.06 ± 0.39
6,E104T I219G,2.75 ± 3.3
7,A23T V44I L212I I219W,3.27 ± 0.26
8,A23Y E104T G194C I218L,0.22 ± 0.013
9,I154L,1.72 ± 1.6
10,H155I,3.05 ± 1.1
11,A23T E100I I219G,8.72 ± 0.52
12,A23T T103L L212I,0.46 ± 0.014
13,I10L V101L E104T T196V,6.81 ± 0.15
14,I13V,4.14 ± 0.062
15,I10L V101L,1.46 ± 0.37
16,V101L T196C,2.16 ± 0.085
17,I10L T196C,0.61 ± 0.028
18,G21M,0.428 ± 0.049
19,H12M A14I T196C,1.49 ± 0.28
20,I13V E100I G194K L212I,0.324 ± 0.15
21,I13V E104T T196C I219C,0.274 ± 0.01
22,T15C A19Q V44I,0.48 ± 0.057
23,I13V V44L E104T L212I,0.354 ± 0.0062
24,A23T A217V,1.12 ± 0.18

row,Variant,pyridoxine titer [mg/L]
1,A23T V44I E104T L212I,4.95 ± 0.43
2,A23T I218L,1.04 ± 0.45
3,V101L,1.19 ± 0.086
4,A23T H155I L212I,0.63 ± 0.014
5,I10L T103L E104T,8.08 ± 0.54
6,A23T E104T G194K L212I,0.349 ± 0.013
7,G21M T196C,0.68 ± 0.042
8,A23T I154L,1.23 ± 0.099
9,D11N,1.88 ± 0.18
10,E100I V101L T196C,0.81 ± 0.21
11,I10L V101L E104T I219C,0.874 ± 0.68
12,I10L V101L E104T I219M,0.553 ± 0.14
13,I10L V101L E104T I219W,1.66 ± 0.26
14,A23T,0.981 ± 0.014
15,I13V V44L E104T T196C,0.824 ± 0.7
16,A23T V44I T196V L212I,1.53 ± 0.17
17,A217V,3.92 ± 2
18,A19Q G21M E100I,0.47 ± 0.23
19,E104T G194C I218L I219L,4.45 ± 0.41
20,E100I L212I,0.67 ± 0.47
21,T15I T196C,1.08 ± 0.071
22,A23T L212I,1.09 ± 0.79
23,I13V H155R L212I,0.22 ± 0.042
24,G194C N213I I218L,9.12 ± 0.45

row,Variant,pyridoxine titer [mg/L]
1,A23T G194C T196F I219G,0.237 ± 0.011
2,T196C,1.21 ± 0.38
3,T103L,3.2 ± 0.14
4,I13V T15V L212I,0.41 ± 0.13
5,V101L A217V,0.74 ± 0.2
6,T15I,0.373 ± 0.14
7,H155I L212I,0.36
8,A23T V44I T196R L212I,3.37 ± 1.5
9,T103L T196C L212I,0.33
10,I10L T103L L212I,0.43 ± 0.071
11,V44I,0.719 ± 0.33
12,A217V I219G,0.77 ± 0.11
13,I13V V101L E104T T196C,1.04 ± 0.83
14,E104T G194C T196Y I218L,0.557 ± 0.059
15,D11C T196C,0.43 ± 0.028
16,I10L V101L E104T,2.46 ± 2
17,G21M T103L,0.63 ± 0.33
18,I10L T22V A23T I219C,1.49 ± 0.02
19,E100I T103L L212I,0.66 ± 0.47
20,E100I V101L,2.12 ± 0.11
21,I10L T103L,1.81 ± 0.042
22,T103L L212I A217V,0.903 ± 0.052
23,V101L E104T A217V,1.17 ± 0.057
24,I13V I154L T196C,0.52 ± 0.014

row,Variant,pyridoxine titer [mg/L]
1,I10L V101L E104T I218M,0
2,T103L L212I,3 ± 0.58
3,L212I,4.92 ± 3.9
4,I13V A217V,1.81 ± 0.057
5,I218V,0.374 ± 0.063
6,I10L T22V E104T I218M,0.757 ± 0.11
7,A23T I218L I219V,5.75 ± 0.16
8,T22V,1.29 ± 0.091
9,A23T V44I T196W L212I,2.89 ± 0.96
10,A19Q G21M,1.17 ± 0.38
11,G194C I218L,1.33 ± 0.76
12,I13V E104T T196R L212I,4.01 ± 0.7
13,E104T G194C T196V I218L,6.11 ± 7.1
14,H155I I218L,0.66 ± 0.014
15,I10L T22V E104T,0.875 ± 0.11
16,I13V T103L L212I,0.43 ± 0.18
17,I13V E100I E104T T196C,1.25 ± 0.031
18,I10L T22V E104T I219L,2.93 ± 0.16
19,T22V L212I,0.55 ± 0.13
20,G194C,0.64 ± 0.33
21,A23T I219G,0.76 ± 0.16
22,E100I V101L L212I,0.86 ± 0.3
23,A23T E100I G194Q I219G,2.67 ± 0.14
24,I10L V101L E104T G194Q,7.61 ± 0.4

row,Variant,pyridoxine titer [mg/L]
1,N213I,1.76 ± 0.13
2,A23T Y24V,0.39 ± 0.028
3,I13V T196C,2.15 ± 0.18
4,I13V E100I L212I,6.04 ± 1.9
5,H12M T196C,1.02 ± 0.014
6,I10L T103L I218L,0.29 ± 0.057
7,G21M V44I T196C,1.94 ± 0.23
8,A23T V44I L212I,6.75 ± 0.099
9,I10L T22V A23T G194Q,0.91 ± 0.11
10,A23T G194C T196M I219G,6.96 ± 5.8
11,I10L V101L T103L E104T,1.611 ± 0.0023
12,L212I A217V,0.69 ± 0.042
13,V101L E104T L212I,0.49 ± 0.028
14,H155I N213I,0.26
15,T15I A23T,0.3 ± 0.014
16,G21M G194C,0.6 ± 0.014
17,A19C A23T L212I,3.68 ± 0.73
18,I10L T22V A23T I218M,0.2811 ± 0.0013
19,N213I I218L,1.1 ± 0.14
